Source: patent US5843888

Tests used:
[1] = molecular target: β chain of human hemoglobin with the N-terminal methionine, as expressed in E. coli before processing (human)
[2] = molecular target: α chain (α96Val→Trp) with the N-terminal methionine, as expressed in E. coli before processing (human)

removal of the N-terminal methionine, electrospray mass spectrometry of the purified r Hb [1]: 90%
removal of the N-terminal methionine, electrospray mass spectrometry of the purified r Hb [2]: > 98%
Substance: E. coli methionine aminopeptidase (from UniProt P0AE18) (enzyme)
